From the RNAGym collection of RNA variant scans (doi:10.7554/elife.80360)

B1: HDV Ribozyme (parent)
chain: GGCCGGCAUGGUCCCAGCCUCCUCGCUGGCGCCGGCUGGGCAACAUUCCGAGGGGACCGUCCCCUCGGUAAUGGCGAAUGGGACCCA

Variants of: B1
Test: self-cleavage, relative activity (ratio to wild type); higher = more cleavage; co-transcriptional

| Variant | self-cleavage |
| --- | --- |
| GGCCGGCAUGGUCCCAGCCUCCUCGCUGGUGCCGGCUGGGCAACAUUCCGAGGGGACCGUUCCCUCGGUAAUGGCGAAUGGGACCCA | 0.719 |
| GGCCGGCAUGGUCCCAGCCUCCUCGCUGGGGCCGGCUGGGCAACACUCCGAGGGGACCGUCCCCUCGGUAAUGGCGAAUGGGACCCA | 0.0831 |
| GGCCGGCAUGGUCCCAGCCUCCUCGCUGGGGCCGGCUGGGCAACAUUCCGAGGGGACCGUCCCCUCGGUAAUUGCGAAUGGGACCCA | 0.0845 |
| GGCCGGCAUGGUCCCAGCCUCCUCGCUGGUGCCGGCUGGGCAACAUUCCGAGGGGAGCGUCCCCUCGGUAAUGGCGAAUGGGACCCA | 0.683 |
| GGCCGGCAUGGUCCCAGCCUCCUCGCUGGGGCCGGCUGGGCAACAUUCCGAGGGCACCGUCCCCUCGGUAAUGGCGAAUGGGACCCA | 0.111 |
| GGCCGGCAUGGUCCCAGCCUCCUCGCUGGUGCCGGCUGGGCAACAUUUCGAGGGGACCGUCCCCUCGGUAAUGGCGAAUGGGACCCA | 0.506 |
| GGCCGGCAUGGUCCCAGCCUCCUCGCUGGUGCCGGCUGGGCAACAUUGCGAGGGGACCGUCCCCUCGGUAAUGGCGAAUGGGACCCA | 0.597 |
| GGCCGGCAUGGUCCCAGCCUCCUCGCUGGUGCCGGCUGGGCAACAUUACGAGGGGACCGUCCCCUCGGUAAUGGCGAAUGGGACCCA | 0.739 |
| GGCCGGCAUGGUCCCAGCCUCCUCGCUGGUGCCGGCUGGGCAACAUUCCGAGGGGACCGUCCCCUCGGUAAUGGCGAAUGGGACCCA | 0.746 |
| GGCCGGCAUGGUCCCAGCCUCCUCGCUGGGGCCGGCUGGGCAACAUUCCGAGGGGACCGUCCCCACGGUAAUGGCGAAUGGGACCCA | 0.032 |
| GGCCGGCAUGGUCCCAGCCUCCUCGCUGGUGCCGGCUGGGCAACAUUCCGAGGGGACCGUCCCCUCGGUAAUGGCGAGUGGGACCCA | 0.208 |
| GGCCGGCAUGGUCCCAGCCUCCUCGCUGGUGCCGGCUGGGCAACAUUCCGAGGGGACCGUCCCCUCGGUAAUGGCGAUUGGGACCCA | 0.101 |
| GGCCGGCAUGGUCCCAGCCUCCUCGCUGGUGCCGGCUGGGCAACAUUCCGAGGGGACCGUCCCCUCGGUAAUGGCGACUGGGACCCA | 0.0978 |
| GGCCGGCAUGGUCCCAGCCUCCUCGCUGGUGCCGGCUGGGCAACAUUCCGAGGGGACCGUCCCCUCGGUCAUGGCGAAUGGGACCCA | 0.525 |
| GGCCGGCAUGGUCCCAGCCUCCUCGCUGGGGCCGGCUCGGCAACAUUCCGAGGGGACCGUCCCCUCGGUAAUGGCGAAUGGGACCCA | 0.0594 |
| GGCCGGCAUGGUCCCAGCCUCCUCGCUGGGGCCGGCUGGGCAACAUUCCGAGGGGACCGUCCCCUCGGUAAUGGCUAAUGGGACCCA | 0.109 |
| GGCCGGCAUGGUCCCAGCCUCCUCGCUGGUGCCGGCUGGGCAACAUUCAGAGGGGACCGUCCCCUCGGUAAUGGCGAAUGGGACCCA | 0.698 |
| GGCCGGCAUGGUCCCAGCCUCCUCGCUGGUGCCGGCUGGGCAACAUUCGGAGGGGACCGUCCCCUCGGUAAUGGCGAAUGGGACCCA | 0.31 |
| GGCCGGCAUGGUCCCAGCCUCCUCGCUGGGGCCGCCUGGGCAACAUUCCGAGGGGACCGUCCCCUCGGUAAUGGCGAAUGGGACCCA | 0.198 |
| GGCCGGCAUGGUCCCAGCCUCCUCGCUGGGGCCGACUGGGCAACAUUCCGAGGGGACCGUCCCCUCGGUAAUGGCGAAUGGGACCCA | 0.191 |
| GGCCGGCAUGGUCCCAGCCUCCUCGCUGGGGCCGUCUGGGCAACAUUCCGAGGGGACCGUCCCCUCGGUAAUGGCGAAUGGGACCCA | 0.138 |
| GGCCGGCAUGGUCCCAGCCUCCUCGCUGGUGCCGGCUGGGCAACAUUCCGAGGGGGCCGUCCCCUCGGUAAUGGCGAAUGGGACCCA | 0.665 |

| Variant | self-cleavage |
| --- | --- |
| GGCCGGCAUGGUCCCAGCCUCCUCGCUGGGGCCGGCUGGGCAACAUUCCGAGGGGACCGUCCCCUCGUUAAUGGCGAAUGGGACCCA | 0.0228 |
| GGCCGGCAUGGUCCCAGCCUCCUCGCUGGGGCCGGCUGGGCAACAUUCCGAGGGGACCGUCCCCUCGAUAAUGGCGAAUGGGACCCA | 0.126 |
| GGCCGGCAUGGUCCCAGCCUCCUCGCUGGGGCCGGCUGAGCAACAUUCCGAGGGGACCGUCCCCUCGGUAAUGGCGAAUGGGACCCA | 0.0608 |
| GGCCGGCAUGGUCCCAGCCUCCUCGCUGGGGCCGGCUGUGCAACAUUCCGAGGGGACCGUCCCCUCGGUAAUGGCGAAUGGGACCCA | 0.0692 |
| GGCCGGCAUGGUCCCAGCCUCCUCGCUGGGGCCGGCUGGGCAACAUUCCAAGGGGACCGUCCCCUCGGUAAUGGCGAAUGGGACCCA | 0.0733 |
| GGCCGGCAUGGUCCCAGCCUCCUCGCUGGGGCCGGCUGGGCAACAUUCCUAGGGGACCGUCCCCUCGGUAAUGGCGAAUGGGACCCA | 0.0978 |
| GGCCGGCAUGGUCCCAGCCUCCUCGCUGGGGCCGGCUGGGCAACAUUCCGAGGGGACCGUCCCCUCGGAAAUGGCGAAUGGGACCCA | 0.148 |
| GGCCGGCAUGGUCCCAGCCUCCUCGCUGGGGCCGGCUGGGCAACAUUCCGAGGGGACCGUCCCCUCGGCAAUGGCGAAUGGGACCCA | 0.18 |
| GGCCGGCAUGGUCCCAGCCUCCUCGCUGGUGCCGGCUGGGGAACAUUCCGAGGGGACCGUCCCCUCGGUAAUGGCGAAUGGGACCCA | 0.212 |
| GGCCGGCAUGGUCCCAGCCUCCUCGCUGGUGCCGGCUGGGUAACAUUCCGAGGGGACCGUCCCCUCGGUAAUGGCGAAUGGGACCCA | 0.447 |
| GGCCGGCAUGGUCCCAGCCUCCUCGCUGGUGACGGCUGGGCAACAUUCCGAGGGGACCGUCCCCUCGGUAAUGGCGAAUGGGACCCA | 0.155 |
| GGCCGGCAUGGUCCCAGCCUCCUCGCUGGUGGCGGCUGGGCAACAUUCCGAGGGGACCGUCCCCUCGGUAAUGGCGAAUGGGACCCA | 0.0652 |
| GGCCGGCAUGGUCCCAGCCUCCUCGCUGGGGCCGGCUGGGCAACAUUCCGAGGGGACCAUCCCCUCGGUAAUGGCGAAUGGGACCCA | 0.0692 |
| GGCCGGCAUGGUCCCAGCCUCCUCGCUGGGGCCGGCUGGGCAACAUUCCGAGGGGACCGUCCCCUCGGUAAUGGCGAAUGGUACCCA | 0.0627 |
| GGCCGGCAUGGUCCCAGCCUCCUCGCUGGUGCCGGCUGGGCUACAUUCCGAGGGGACCGUCCCCUCGGUAAUGGCGAAUGGGACCCA | 0.0615 |
| GGCCGGCAUGGUCCCAGCCUCCUCGCUGGGGCCGGCUGGGCAACAUUCCGAGGGGACCGCCCCCUCGGUAAUGGCGAAUGGGACCCA | 0.147 |
| GGCCGGCAUGGUCCCAGCCUCCUCGCUGGGGCCGGCUGGGCAACAUUCCGAAGGGACCGUCCCCUCGGUAAUGGCGAAUGGGACCCA | 0.0287 |
| GGCCGGCAUGGUCCCAGCCUCCUCGCUGGGGCCGGCUGGGCAACAUUCCGAUGGGACCGUCCCCUCGGUAAUGGCGAAUGGGACCCA | 0.02 |
| GGCCGGCAUGGUCCCAGCCUCCUCGCUGGGGCCGGCUGGGCAACAUUCCGACGGGACCGUCCCCUCGGUAAUGGCGAAUGGGACCCA | 0.133 |
| GGCCGGCAUGGUCCCAGCCUCCUCGCUGGGGCCGGCUGGGCAACAUGCCGAGGGGACCGUCCCCUCGGUAAUGGCGAAUGGGACCCA | 0.0678 |
| GGCCGGCAUGGUCCCAGCCUCCUCGCUGGGGCCGGCUGGCCAACAUUCCGAGGGGACCGUCCCCUCGGUAAUGGCGAAUGGGACCCA | 0.106 |
| GGCCGGCAUGGUCCCAGCCUCCUCGCUGGGGCCGGCUGGUCAACAUUCCGAGGGGACCGUCCCCUCGGUAAUGGCGAAUGGGACCCA | 0.0514 |

| Variant | self-cleavage |
| --- | --- |
| GGCCGGCAUGGUCCCAGCCUCCUCGCUGGGGCCGGCUGGGCAACAUUCCGAGGGGACCGUCCCCUCGGUAAUGACGAAUGGGACCCA | 0.0733 |
| GGCCGGCAUGGUCCCAGCCUCCUCGCUGGUGCCGGCUGGGCAACAUUCCGAGGGGACCGUCCCCUCGGUAAUGGCGCAUGGGACCCA | 0.181 |
| GGCCGGCAUGGUCCCAGCCUCCUCGCUGGUGCCGGGUGGGCAACAUUCCGAGGGGACCGUCCCCUCGGUAAUGGCGAAUGGGACCCA | 0.0941 |
| GGCCGGCAUGGUCCCAGCCUCCUCGCUGGUGCCGGAUGGGCAACAUUCCGAGGGGACCGUCCCCUCGGUAAUGGCGAAUGGGACCCA | 0.193 |
| GGCCGGCAUGGUCCCAGCCUCCUCGCUGGUGCCGGCUGGGCAACUUUCCGAGGGGACCGUCCCCUCGGUAAUGGCGAAUGGGACCCA | 0.32 |
| GGCCGGCAUGGUCCCAGCCUCCUCGCUGGUGCCGGCUGGGCAACCUUCCGAGGGGACCGUCCCCUCGGUAAUGGCGAAUGGGACCCA | 0.138 |
| GGCCGGCAUGGUCCCAGCCUCCUCGCUGGGGCCGGCUGGGCAACAUUCCGAGGGGACCGUCCCCUCGGUAAUGGCGAAUGUGACCCA | 0.158 |
| GGCCGGCAUGGUCCCAGCCUCCUCGCUGGGGCCGGCUGGGCAACAUUCCGAGGGGACCGUCCCCUCGGUAAUGGCGAAUGAGACCCA | 0.0978 |
| GGCCGGCAUGGUCCCAGCCUCCUCGCUGGUGCCGGCUGGGCAACAUUCCGCGGGGACCGUCCCCUCGGUAAUGGCGAAUGGGACCCA | 0.594 |
| GGCCGGCAUGGUCCCAGCCUCCUCGCUGGUGCCGGCUGGGCAACAUUCCGGGGGGACCGUCCCCUCGGUAAUGGCGAAUGGGACCCA | 0.784 |
| GGCCGGCAUGGUCCCAGCCUCCUCGCUGGUGCCGGCUGGGCAACAUUCCGAGGGGACCGUCCCCUCGGUAAUGGCGAAUGGGGCCCA | 0.302 |
| GGCCGGCAUGGUCCCAGCCUCCUCGCUGGUGCCGGCUGGGCAACAUUCCGAGGGGACCGUCCCCUCGGUAAUGGCGAAUGGGCCCCA | 0.332 |
| GGCCGGCAUGGUCCCAGCCUCCUCGCUGGUGCCGGCUGGGCAACAUUCCGAGGGGACCGUCCCCUCGGUAAUGGCGAAUGGGUCCCA | 0.151 |
| GGCCGGCAUGGUCCCAGCCUCCUCGCUGGGGCCGGCUGGGCAACAUUCCGAGGGGACCGUCCCCUCGGUAAUGGCGAAUAGGACCCA | 0.141 |
| GGCCGGCAUGGUCCCAGCCUCCUCGCUGGGGCCGGCUGGGCAACAUUCCGAGGGGACCGUCCCCUCCGUAAUGGCGAAUGGGACCCA | 0.0528 |
| GGCCGGCAUGGUCCCAGCCUCCUCGCUGGUGCCGGCUGGGCACCAUUCCGAGGGGACCGUCCCCUCGGUAAUGGCGAAUGGGACCCA | 0.158 |
| GGCCGGCAUGGUCCCAGCCUCCUCGCUGGUGCCGGCUGGGCAGCAUUCCGAGGGGACCGUCCCCUCGGUAAUGGCGAAUGGGACCCA | 0.0755 |
| GGCCGGCAUGGUCCCAGCCUCCUCGCUGGGGCCGGCAGGGCAACAUUCCGAGGGGACCGUCCCCUCGGUAAUGGCGAAUGGGACCCA | 0.0462 |
| GGCCGGCAUGGUCCCAGCCUCCUCGCUGGUGCUGGCUGGGCAACAUUCCGAGGGGACCGUCCCCUCGGUAAUGGCGAAUGGGACCCA | 0.369 |
| GGCCGGCAUGGUCCCAGCCUCCUCGCUGGUGCCGGCUGGGCAACAUUCCGAGGGGACCGUCCCCUCGGUAUUGGCGAAUGGGACCCA | 0.372 |
